This assay deals with human asialo-haptoglobin, phenotype 1-1 (Hp heterotetramer of two α1 and two β-subunits) (human) (UniProt P00738). Kind of assay: native MS.

The record followed here is article PMC6126716.

“human hemoglobin holo-heterodimer (αHb and βHb) (from UniProt P69905 1-142; P68871 1-147) (complex)” displayed a stoichiometry N (Hb heterodimers per Hp heterotetramer) of 2.
